Experimental data published in US20130189284A1 (TECHNION RESEARCH AND DEVELOPMENT FOUNDATION, published 2013).

B1: G3H8 Fab (Anti HLA-DR4/GAD555-567 Fab) (Fab, V domains shown)
VH: QVQLVQSGAEVKKPGASVKVSCKASGYTFTTYGISWVRQAPGQGLEWMGWISAYNGHTNYAQMLQGRVTMTTDTSTSTAYMELRGLRSDDTAVYYCAREAYASYGSGSYWTDYWGQGTLVTVSS
VL: ETTLTQSPATLSVSPGERVTLSCRASQSVGSNLAWYQQKFGQAPRLLIYDASTRATGIPARFSGSGSGTEFTLTISRLEPEDFAVYYCHQYGSSPRTFGQGTKVDIKR
notes: also called Fab G3H8; G3H8 TCRL Fab
B2: G1H12 Fab (Anti HLA-DR4/GAD555-567 Fab) (Fab, V domains shown)
VH: QVQLVQSGAEVKKPGASVKVSCKASGYTFTSYGISWVRQAPGQGLEWMGGIIPIFGTANYAQKFQGRVTITADKSTSTAYMELSSLRSEDTAVYYCARDPQSYYYDSSGFDYWGQGTLVTVSS
VL: QSVLTQPPSVSAAPGQKVTISCSGSSSNIGNNYVSWYQQLPGTAPKLLIYDNNKRPSGIPDRFSGSKSGTSATLGITGLQTGDEADYYCGTWDSSLSVWVFGGGTKLTVLG

Legend:
[1] = molecular target: HA307-319 peptide ([…]), alone; assay: ELISA, immobilized peptide
[2] = molecular target: DR4/HA307-319 complex presented on cells (human, UniProt P01903 26-254; P01911 30-266); assay: flow cytometry on peptide-loaded Preiss cells

Row | Binder | binding result [1] | binding result [2]
1 | B1 | no binding (tested: 5 µg/ml soluble purified Fab) | no binding (tested: 1-5 µg of specific Fab per 10^6 cells)
2 | B2 | no binding (tested: 5 µg/ml soluble purified Fab) | no binding (tested: 1-5 µg of specific Fab per 10^6 cells)
